Laboratory results taken from patent publication CN116023492A (XINJIANG YOUMAI BIOTECHNOLOGY CO LTD, dated 2023).

Target: T1, 人PDL1蛋白 (human, UniProt Q9NZQ7 19-239, limits assumed)
T1 construct: Bought recombinant protein; also called human PDL1; B7-H1
Test: non-competitive ELISA, four coating concentrations of PDL1 (1, 0.5, 0.25, 0.125 ug/mL), KA=(n-1)/(nAb'-Ab), mean of 6 values

T1 sequence (Q9NZQ7 19-239 limits assumed): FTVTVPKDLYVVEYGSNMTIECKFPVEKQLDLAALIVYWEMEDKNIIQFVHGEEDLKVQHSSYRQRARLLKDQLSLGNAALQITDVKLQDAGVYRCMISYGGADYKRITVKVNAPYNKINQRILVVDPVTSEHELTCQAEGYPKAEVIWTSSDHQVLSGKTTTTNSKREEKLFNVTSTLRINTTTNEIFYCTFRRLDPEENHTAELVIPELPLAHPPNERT

Ka: 933000 M⁻¹
B1: 抗人PDL1纳米抗体 Nb2 (VHH)
VHH: QVQLQESGGGSVQAGGSLRLSCIASGVDYNSRTDRMAWFRQVPGKEREGVAAIYTYNNRTYYADSVKGRFTISQDIGKNTVYLQMNSLEPEDTATYYCARDWRFSSGMLDKNMYKYWGQGTQVTVSS
notes: Expressed from pMECS in E. coli TG1, Ni-purified; also called 抗PDL1(Nb2)纳米抗体; not shown: C-terminal HA and His tags from the pMECS vector
